Measured values from US20250282887A1 (Amgen, published 2025).
Positions count from the first letter of the chain named.

T1: human MAGEB16 (human, UniProt A2A368 1-324)
T1 construct: whole, on cells; FFPE cell pellets
T1 sequence (looked up): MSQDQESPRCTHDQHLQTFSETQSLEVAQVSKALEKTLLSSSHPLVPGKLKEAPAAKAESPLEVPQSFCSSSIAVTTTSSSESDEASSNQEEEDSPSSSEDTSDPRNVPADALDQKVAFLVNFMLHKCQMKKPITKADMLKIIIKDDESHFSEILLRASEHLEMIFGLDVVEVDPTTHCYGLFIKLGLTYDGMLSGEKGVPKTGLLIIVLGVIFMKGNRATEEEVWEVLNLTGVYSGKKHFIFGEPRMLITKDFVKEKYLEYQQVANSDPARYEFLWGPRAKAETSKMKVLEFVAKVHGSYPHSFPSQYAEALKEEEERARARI

T2: Human MAGEB2 (Melanoma-associated antigen B2) (human, UniProt O15479 1-319)
T2 construct: Intracellular antigen detected by IHC in FFPE material: CHO cells transfected with human MAGEB2 (mCherry vector with Myc/DDK tags, or ORF without tags)
T2 sequence: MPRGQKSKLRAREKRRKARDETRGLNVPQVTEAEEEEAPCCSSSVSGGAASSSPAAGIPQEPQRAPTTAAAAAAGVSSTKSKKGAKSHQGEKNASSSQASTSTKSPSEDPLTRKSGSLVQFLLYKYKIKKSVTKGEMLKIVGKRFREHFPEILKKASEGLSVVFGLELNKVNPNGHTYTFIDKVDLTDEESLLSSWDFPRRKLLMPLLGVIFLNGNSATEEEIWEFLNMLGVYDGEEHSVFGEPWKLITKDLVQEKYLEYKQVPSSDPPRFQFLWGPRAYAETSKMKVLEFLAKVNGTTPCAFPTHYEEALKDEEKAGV

B1: 1I14 (antibody, V domains shown)
VH: QSVEESGGRLVTPGTPLTLTCTISGFSLSSYAMSWVRQAPGKGLEWIGSIGGGGSAVYASWAKGRFTISKTSTTVDLRITSPTTEDTAMYFCGRGFYSIDLWGPGTLVTVSS
VL: DVVMTQTPASVEATVGGTVTIKCQSSQSVYDNNALAWYQQNAGQRPRLLIYGASTLASGVPSRFSASGSGTEFTLTISDLECADAATYYCQCTYYVSSYQNDFGGGTEVVVKG
notes: also called MAGE-B2 (1i14)
B2: 1C3 (antibody, V domains shown)
VH: QSLEESGGGLVQPEGSLTLTCTAFGVTLTNYYICWVRQAPGKGLEWVGCIDNANGRTYYASWAKGRFTISKTSSTTGTLQMTSLTAADTATYFCARSLATPLWGPGTLVTVSS
VL: DIVMTQTPSSVEAAVGGTVTIKCQASQNISSYLAWYQQKPGQPPKLLIYRASTLASGVPSRFKGSGSGTQFTLTISDLECADAATYYCQSYDDSRSSNFFYAFGGGTEVVVKG
notes: also called MAGE-B2 (IC3); anti-MAGEB2 antibody 1C3
B3: 4G17 (antibody, IgG1, V domains shown)
VH: B2 VH with F24S, T29S, V47I, A53V
VL: DIVMTQTPASVEAAVGGTVTIKCQASQNIDSYLAWYQQKPGQPPKLLIYRASTLASGVPSRFKGSGSGTEFTLTISDLECADAATYYCQSYDDSRSSSFFYGFGGGTEVVVK
notes: Rabbit monoclonal IgG1; Tested as supernatant and as small batch purified antibody; also called MAGE-B2 (4G17); anti-MAGEB2 antibody 4G17
B4: 1J15 (antibody, IgG1, V domains shown)
VH: B2 VH with V26F, T29N, V47I, G48A, G77V, A99S
VL: B3 VL with N28S, D30S, A34S, K63R, E70Q, R95S, S96D, S97N, S98N, K112R
notes: Rabbit monoclonal IgG1; Tested as supernatant and as small batch purified antibody; also called MAGE-B2 (IJ15); anti-MAGEB2 antibody 1J15

What follows are binders tested against T1, human MAGEB16 (assay: IHC, FFPE CHO cells transfected with human MAGEB16).
From the text: Negative control cells included parental Chinese hamster ovary (CHO) cells, CHO cells stably transfected with mCherry Vector Control (minus Myc/DDK tags), CHO cells stably transfected with mCherry-human DCAF4L2 (plus Myc/DDK tags). The cross-reactivity control cells included CHO cells transfected with mCherry Vector Control (plus Myc/DDK tags) with one of the human MAGE-B or MAGE-A family members (MAGEA1, MAGEA2, MAGEA3, MAGEA4, MAGEA5, MAGEA6, MAGEA8, MAGEA9, MAGEA11, MAGEA12, MAGEB1, MAGEB3, MAGEB4, MAGEB5, MAGEB6, MAGEB10, MAGEB16, MAGEB17, MAGEB18). Positive control cell lines included CHO cells transfected with mCherry Vector (plus Myc/DDK tags) with human MAGE-B2 or CHO cells transfected with mCherry Vector (open reading frame (ORF); minus Myc/DDK tags) with human MAGEB2, and thirteen human cancer cell lines with known endogenous RNA expression level of MAGEB2 (U266B1, T98G, KMM-1, U20S, CFPAC-1, SCaBER, UACC-257, CFPAC-1, VMRC-LCD, NCI-H1703, UM-UC-3, NCI-H1395, NCIH82).
(§1) FFPE samples were sectioned at 4 μm and mounted on positive charged glass slides. After mounting, paraffin sections were air-dried at room temperature. FFPE TMA samples were received as freshly sectioned and mounted on glass slides. The fully automated IHC assay was performed on a Discovery Ultra Stainer (Ventana Medical Systems, Tucson, AZ) using Ventana Anti-Rabbit HQ (cat #760-4815), Ventana Anti-HQ HRP (cat #760-4820), and Ventana Antibody Diluent with Casein (cat #760-219) (Ventana Medical Systems, Tucson, AZ). The slides were baked on the Discovery Ultra Stainer at 60° C. for 8 minutes, de-paraffinized with Ventana Discovery wash (cat #950-510) for 3 cycles (8 minutes each) at 69° C., and underwent cell conditioning (target retrieval) at 95° C. for 16 minutes (for cell arrays) or 32 minutes (tissues or TMAs) in CC1 buffer (cat #950-500). Following this, slides were incubated with Background Sniper (cat #BS966M, Biocare Medical, Pacheco, CA) in a Ventana Option Prep kit (cat #771-751) for 28 minutes, incubated with CM inhibitor (a part of the Ventana DAB kit cat #760-159) for 12 minutes, and incubated for 1 h at RT with MAGE-B2 antibody diluted with Ventana diluent with Casein in a Ventana Prep kit (cat #770-001) (working concentration at 0.1 μg/ml for cell pellet, or 1-5 ug/ml for tissues) or with a matched concentration of isotype control Rabbit IgG1 antibody.
B1: no binding (tested: 0.1 µg/ml). B2: no binding (tested: 0.1 µg/ml). B3: no binding (tested: 0.1 µg/ml). B4: no binding (tested: 0.1 µg/ml).

What follows are binders tested against T2, Human MAGEB2 (Melanoma-associated …) (assay: IHC on FFPE KMM-1 cells (endogenous MAGEB2)).
Experimental: as §1, with “antibody. Following this, slides were incubated with the Ventana Anti-Rabbit HQ (cat #760-4815) for 28 minutes at RT, Ventana Anti-HQ HRP (cat #760-4820) for 28 minutes at RT, and signals detected with Ventana DAB chromogen kit (cat #760-159) for 5 minutes at RT. Slides were counterstained with Ventana Hematoxylin II (cat #5266726001) for 8 minutes and Ventana Bluing reagent (cat #526676900) for 4 minutes. Slides were coverslipped and digitized using an Aperio AT2 scanner (Leica Biosystems Inc, Buffalo Grove, IL).” for “antibody.”
In the case of B1, the “IHC % Frequency” value is reported as 70% and the “IHC Intensity” value is reported as 1. B2 was tested, and the “IHC % Frequency” value was 70% and the “IHC Intensity” value was 1. With B3 the “IHC % Frequency” value was 70% and the “IHC Intensity” value was 2. In the case of B4, the “IHC % Frequency” value is reported as 70%.
